Experimental data from patent US20230192888A1.

Assays:
[1] = target: human recombinant MMP-1 (human) (UniProt P03956); experiment: sandwich ELISA; capture MAB901, detection 1-8A12-HRP; MMP-1 5 ng/ml
[2] = target: human recombinant MMP-1 (human) (UniProt P03956); experiment: sandwich ELISA; capture MAB901, detection 1-8A12-HRP; MMP-1 10 ng/ml
[3] = target: human recombinant MMP-1 (human) (UniProt P03956); experiment: sandwich ELISA; capture MAB901, detection 1-8A12-HRP; MMP-1 2.5 ng/ml
[4] = target: human recombinant MMP-1 (human) (UniProt P03956); experiment: sandwich ELISA; capture MAB901, detection 1-8A12-HRP; MMP-1 1.25 ng/ml
[5] = target: human recombinant MMP-1 (human) (UniProt P03956); experiment: sandwich ELISA; capture MAB901, detection 1-8A12-HRP; MMP-1 0.156 ng/ml
[6] = target: human recombinant MMP-1 (human) (UniProt P03956); experiment: sandwich ELISA; capture MAB901, detection 1-8A12-HRP; MMP-1 0.313 ng/ml
[7] = target: human recombinant MMP-1 (human) (UniProt P03956); experiment: sandwich ELISA; capture MAB901, detection 1-8A12-HRP; MMP-1 0.625 ng/ml
[8] = target: endogenous MMP-1 in clinical saliva samples (human) (UniProt P03956); experiment: sandwich ELISA; capture MAB901, detection 1-8A12-HRP; saliva sample 8 (MMP-1 0 pg/ml)
[9] = target: endogenous MMP-1 in clinical saliva samples (human) (UniProt P03956); experiment: sandwich ELISA; capture MAB901, detection 1-8A12-HRP; saliva sample 4 (MMP-1 6.4 pg/ml)
[10] = target: endogenous MMP-1 in clinical saliva samples (human) (UniProt P03956); experiment: sandwich ELISA; capture MAB901, detection 1-8A12-HRP; saliva sample 6 (MMP-1 27.1 pg/ml)
[11] = target: endogenous MMP-1 in clinical saliva samples (human) (UniProt P03956); experiment: sandwich ELISA; capture MAB901, detection 1-8A12-HRP; saliva sample 5 (MMP-1 285.6 pg/ml)
[12] = target: endogenous MMP-1 in clinical saliva samples (human) (UniProt P03956); experiment: sandwich ELISA; capture MAB901, detection 1-8A12-HRP; saliva sample 7 (MMP-1 120.6 pg/ml)
[13] = target: endogenous MMP-1 in clinical saliva samples (human) (UniProt P03956); experiment: sandwich ELISA; capture MAB901, detection 1-8A12-HRP; saliva sample 2 (MMP-1 5041.1 pg/ml)
[14] = target: endogenous MMP-1 in clinical saliva samples (human) (UniProt P03956); experiment: sandwich ELISA; capture MAB901, detection 1-8A12-HRP; saliva sample 3 (MMP-1 1503.2 pg/ml)
[15] = target: endogenous MMP-1 in clinical saliva samples (human) (UniProt P03956); experiment: sandwich ELISA; capture MAB901, detection 1-8A12-HRP; saliva sample 1 (MMP-1 14821.9 pg/ml)

OD value [1]: 1.19 OD
OD value [2]: 2.34 OD
OD value [3]: 0.544 OD
OD value [4]: 0.258 OD
OD value [5]: 0.027 OD
OD value [6]: 0.056 OD
OD value [7]: 0.119 OD
OD value [8]: -0.01 OD
OD value [9]: -0.019 OD
OD value [10]: 0.003 OD
OD value [11]: 0.045 OD
OD value [12]: 0.006 OD
OD value [13]: 0.883 OD
OD value [14]: 0.11 OD
OD value [15]: 2.69 OD
Substance: MAB901 (antibody)
